The experiment concerns the target T1, ADAMTSL2 (a disintegrin and metalloproteinase with thrombospondin motifs-like 2), recombinant (human, UniProt Q86TH1 23-951).
T1 construct: ADAMTSL2, secreted glycoprotein; source: recombinant, purified as described previously (Koo et al., 2007)
T1 sequence (looked up): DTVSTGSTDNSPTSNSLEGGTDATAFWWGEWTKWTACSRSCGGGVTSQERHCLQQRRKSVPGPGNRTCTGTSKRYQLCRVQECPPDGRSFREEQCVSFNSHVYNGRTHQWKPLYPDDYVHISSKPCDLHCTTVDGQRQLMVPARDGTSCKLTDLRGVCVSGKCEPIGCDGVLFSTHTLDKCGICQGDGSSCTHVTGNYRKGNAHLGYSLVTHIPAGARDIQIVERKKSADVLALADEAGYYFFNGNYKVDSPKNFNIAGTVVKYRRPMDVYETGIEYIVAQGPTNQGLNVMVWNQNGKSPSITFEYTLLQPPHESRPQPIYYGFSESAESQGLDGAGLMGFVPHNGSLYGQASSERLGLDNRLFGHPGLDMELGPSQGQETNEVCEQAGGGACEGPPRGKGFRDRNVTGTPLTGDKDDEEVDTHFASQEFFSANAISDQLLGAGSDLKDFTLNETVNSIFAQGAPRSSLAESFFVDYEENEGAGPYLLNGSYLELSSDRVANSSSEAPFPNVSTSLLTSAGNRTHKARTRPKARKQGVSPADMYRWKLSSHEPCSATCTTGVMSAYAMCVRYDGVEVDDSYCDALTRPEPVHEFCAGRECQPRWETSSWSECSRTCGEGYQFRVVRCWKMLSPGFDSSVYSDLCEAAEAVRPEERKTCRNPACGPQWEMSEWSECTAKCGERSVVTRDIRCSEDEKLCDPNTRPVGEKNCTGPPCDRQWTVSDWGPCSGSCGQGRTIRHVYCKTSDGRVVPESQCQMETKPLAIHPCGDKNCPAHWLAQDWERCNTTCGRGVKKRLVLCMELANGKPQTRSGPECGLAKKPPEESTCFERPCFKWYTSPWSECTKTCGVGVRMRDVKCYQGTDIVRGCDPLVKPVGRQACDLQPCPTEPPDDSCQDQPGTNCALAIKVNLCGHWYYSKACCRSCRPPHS
Briefly: SPR; ADAMTSL2 immobilised by amine coupling on a CM5 chip (about 1500 RU), fibrillin fragments injected; BIAcore 3000; 25°C; 10 mM HEPES pH 7.4, 150 mM NaCl, 2 mM CaCl2, 0.005% surfactant P20; 20 ul/min; n=2. As to conditions: both partners purified.

We go through two molecules from publication PMC4415891, “Adamtsl2 deletion results in bronchial fibrillin microfibril accumulation and bronchial epithelial dysplasia – a novel mouse model providing insights into geleophysic dysplasia” (Disease Models & Mechanisms, 2015).

B1: C-terminal half of fibrillin-1 (FBN1), recombinant fragment (domain or fragment)
chain: not shown
With B1, the Kd came out at 8 nM.

B2: N-terminal half of fibrillin-1 (FBN1), recombinant fragment (domain or fragment)
chain: not shown
For the molecule B2, the Kd stood at 14.3 nM.
